Among the data in patent US20250320279A1, “UNGULATE-DERIVED POLYCLONAL IMMUNOGLOBULIN SPECIFIC FOR INFLUENZA VIRUS AND USES THEREOF” (priority 2021, published 2025) are HAI titer (Huber virus stock) (reciprocal dilution), HAI titer (hVIVO virus stock) (reciprocal dilution) and HAI titer (reciprocal dilution) values, retold here.

Experiment in all cases: cell-based or functional assay
For test [1], the target named is hemagglutinin (HA) of influenza A/California/4/2009 pH1N1 (Influenza A virus A/California/4/2009 (pH1N1)).
Test [2] deals with hemagglutinin (HA) of influenza A/Cambodia/e0826360/2020 (2021-22) H3N2 (Influenza A virus A/Cambodia/e0826360/2020 (H3N2)).
Test [3] concerns the target hemagglutinin (HA) of influenza A/Michigan/45/2015 pH1N1 (Influenza A virus A/Michigan/45/2015 (pH1N1)).
In test [4] the target is hemagglutinin (HA) of influenza B/Phuket/3073/2013 B-Yam (Influenza B virus B/Phuket/3073/2013 (B-Yam)).
The target in test [5] is hemagglutinin (HA) of influenza A/Guangdong-maonan/2019 (Cell) H1N1 (Influenza A virus A/Guangdong-maonan/2019 (H1N1), (Cell)).
For test [6], the target named is hemagglutinin (HA) of influenza A/Guangdong-maonan/2019 (Egg) H1N1 (Influenza A virus A/Guangdong-maonan/2019 (H1N1), (Egg)).
Test [7] addresses hemagglutinin (HA) of influenza B/Washington/02/2019 B-Vic (Influenza B virus B/Washington/02/2019).
For test [8], the target named is hemagglutinin (HA) of influenza B/Colorado/06/2017 B-Vic (Influenza B virus B/Colorado/06/2017 (B-Vic)).
Test [9] concerns the target hemagglutinin (HA) of influenza B/Maryland/15/2016 B-Vic (Influenza B virus B/Maryland/15/2016 (B-Vic)).
Test [10] has as its target hemagglutinin (HA) of influenza A/Singapore/INFIMH-16-0019/2016 H3N2 (Influenza A virus A/Singapore/INFIMH-16-0019/2016 (H3N2)).
Test [11] deals with hemagglutinin (HA) of influenza A/Victoria/2570/2019 (2021-22) H1N1 (Influenza A virus A/Victoria/2570/2019 (H1N1)).
Test [12] deals with hemagglutinin (HA) of influenza A/Hong Kong/2671/2019 (Egg) H3N2 (Influenza A virus A/Hong Kong/2671/2019 (H3N2), (Egg)).
The target of test [13] is hemagglutinin (HA) of influenza A/Brisbane/02/2018 H1N1 (Influenza A virus A/Brisbane/02/2018 (H1N1)).
For test [14], the target named is hemagglutinin (HA) of influenza A/Kansas/14/2017 H3N2 (Influenza A virus A/Kansas/14/2017 (H3N2)).
Test [15] addresses hemagglutinin (HA) of influenza B/California/12/2015 B-Yam (Influenza B virus B/California/12/2015).
The target in test [16] is hemagglutinin (HA) of influenza A/Switzerland/9715293/2013 H3N2 (Influenza A virus A/Switzerland/9715293/2013 (H3N2)).
For test [17], the target named is hemagglutinin (HA) of influenza A/Hong Kong/4801/2014 H3N2 (Influenza A virus A/Hong Kong/4801/2014 (H3N2)).
Test [18] deals with hemagglutinin (HA) of influenza B/Brisbane/60/2008 B-Vic (Influenza B virus B/Brisbane/60/2008 (B-Vic)).

As for SAB-176 Lot 1 V3 (antibody), in test [1], the HAI titer (Huber virus stock) (reciprocal dilution) was determined as 512. This substance also displayed an HAI titer (hVIVO virus stock) (reciprocal dilution) in test [1] of 512. The HAI titer (reciprocal dilution) stood at 128 in test [2]; 512 in test [3]; 128 in [4]; 512 in test [5]; 512 in [6]; 64 in [7]. The HAI titer (reciprocal dilution) in test [8] worked out at 256; in test [9], 256; in test [10] it was 512; in test [11] it was 256; in test [12] it was 64; in test [13] it was 512. The figures for the HAI titer (reciprocal dilution) in test [14] and in test [15] were 64 and 128, respectively.

On to SAB-176 Lot 2 V3-V5 (antibody), for which the HAI titer (Huber virus stock) (reciprocal dilution) in test [1] amounted to 512. The substance also had an HAI titer (hVIVO virus stock) (reciprocal dilution) in [1] of 1024. Besides, the HAI titer (reciprocal dilution) in [2] came out at 256; in test [3], 512; in test [4], 256; in test [5] it was 512; in test [6], 512; in test [7] it was 128. Moreover, the HAI titer (reciprocal dilution) in test [8] worked out at 256; in test [9], 256; in [10] it was 512; in test [11], 256; in test [12], 128; in [13] it was 512. In addition, the results for the HAI titer (reciprocal dilution) in test [14] and in [15] were 64 and 128, respectively.

Regarding SAB-176 Lot 3 V3-V12 (antibody), in [1], the HAI titer (Huber virus stock) (reciprocal dilution) is 512. The substance further displayed an HAI titer (hVIVO virus stock) (reciprocal dilution) in test [1] of 512. For the same substance, the HAI titer (reciprocal dilution) in [2] worked out at 256; in [3], 512; in [4], 128; in test [5] it was 512; in [6], 512; in test [7], 64. Further, the HAI titer (reciprocal dilution) stood at 256 in test [8]; 128 in test [9]; 512 in test [10]; 256 in test [11]; 256 in test [12]; 512 in [13]. Further, the figures for the HAI titer (reciprocal dilution) in test [14] and in [15] were 512 and 128, respectively.

For the substance SAB-176 Lot 4 V3-V12 (antibody), the HAI titer (Huber virus stock) (reciprocal dilution) in test [1] was determined as 512. The HAI titer (hVIVO virus stock) (reciprocal dilution) in test [1] worked out at 512. For the same substance, the HAI titer (reciprocal dilution) in test [2] worked out at 256; in test [3], 512; in test [4], 128; in [5] it was 512; in [6], 512; in [7], 128. Also, the HAI titer (reciprocal dilution) came to 256 in test [8]; 256 in test [9]; 512 in test [10]; 256 in test [11]; 256 in test [12]; 512 in [13]. Moreover, the HAI titer (reciprocal dilution) in test [14] is 256; in test [15] it was 128.

In test [1], negative control IgG (antibody) came in with an HAI titer (Huber virus stock) (reciprocal dilution) below 1. The same substance returned an HAI titer (hVIVO virus stock) (reciprocal dilution) in test [1] below 1. Also, the HAI titer (reciprocal dilution) in test [1], in test [2], in test [16], in test [3], in [4] and in test [5] was below 1 throughout. Also, the HAI titer (reciprocal dilution) in test [6], in test [7], in [17], in test [8], in test [9] and in [10] was below 1 in each case. The HAI titer (reciprocal dilution) in [11], in [12], in [13], in [14], in test [18] and in test [15] was below 1 each time.
